The DeepSol protein solubility set

test: soluble on expression in E. coli; label from the status in PepcDB or PDB records

Sequence | soluble on expression in E. coli
MSEKRVQPLARDAMAYVLAGGRGSRLKELTDRRAKPAVYFGGKARIIDFALSNALNSGIRRIGVATQYKAHSLIRHLQRGWDFFRPERNESFDILPASQRVSETQWYEGTADAVYQNIDIIEPYAPEYMVILAGDHIYKMDYEYMLQQHVDSGADVTIGCLEVPRMEATGFGVMHVNEKDEIIDFIEKPADPPGIPGNEGFALASMGIYVFHTKFLMEAVRRDAADPTSSRDFGKDIIPYIVEHGKAVAHRFADSCVRSDFEHEPYWRDVGTIDAYWQANIDLTDVVPDLDIYDKSWPIWTYAEITPPAKFVHDDEDRRGSAVSSVVSGDCIISGAALNRSLLFTGVRANSYSRLENAVVLPSVKIGRHAQLSNVVIDHGVVIPEGLIVGEDPELDAKRFRRTESGICLITQSMIDKLDL | soluble
GEIWVYIDHIGEKPNRASFEIMGEARRIADLMDTSLSAVMVGGEATKSLIEETFEYGADKVYFVETKGFDRYDNEVYTRALAKVIKKYKPEAVFFPGTKNARELASTTAIEVDTGLIADCTNFDVDDKGVLLSTRPDFGGKEMSTIICPRHRPVMVTVRAGVFMPLPRVPGRKGELAREEIDDLFTRLKVLDYRVIEKRNI | not soluble
MAKINLTPKKIYEQEFKTSIRGYDKTEVDEFLDDVIKDYTVYIALVKELQEENAKLKAKATSAPASRPAYASATSEPSHATTNIASASNYDILKRISRLEKEVFGKQIVE | not soluble
MPTVQTIYSLEKAPEATKDKEPLVVYATSVDWKWVFSYPEQDIETVNYLNIPVDRPILCKISSADSMASLWIPQLGGQKYAMAGMLMDQYLQADKVGTYEGRNANFTGEHFADQEFDVNAVTEKDFNSWVKKTQNEAPKLTKEKYDELMLPENVDELTFSSTHLKYVDHGQDAEYAMEARKRLGYQAVSPHCKTDPFENVKKNEFKKSDDTEE | not soluble
MRKKISIIGAGFVGSTTAHWLAAKELGDIVLLDIVEGVPQGKALDLYEASPIEGFDVRVTGTNNYADTANSDVIVVTSGAPRKPGMSREDLIKVNADITRACISQAAPLSPNAVIIMVNNPLDAMTYLAAEVSGFPKERVIGQAGVLDAARYRTFIAMEAGVSVKDVQAMLMGGHGDEMVPLPRFSTISGIPVSEFIAPDRLAQIVERTRKGGGEIVNLLKTGSAYYAPAAATAQMVEAVLKDKKRVMPVAAYLTGQYGLNDIYFGVPVILGAGGVEKILELPLNEEEMALLNASAKAVRATLDTLKSL | soluble
MGSDKIHHHHHHSQRQMDIIGNNLANSSTLGYKSADTQFANMLSQSLTSGSGSFQVGQGVAISSVNTKFDQGSFESTGSVTDMAIDGEGFFPVKDKEGAIYYTRAGAFVIDKDGYLVDVNGYRVQGINLFSAPGDAELTDICLKNIQSAPSATKTFGIGVNLNDSEDAGTSFVVSQNVFDSKGAIHNLSLTFTKTEGDGYWGCQAKLDNVETINSSCCGIKFDESGNLKNTYLTSCSAGAVSGGGAITSTTVNKPGQLYLNGTIACTRGADADTWTISSSEYPNLEFSLGDLGNDDEIAIDLDGKGGTDITLALGAGFADLSSFDLTISQVESNAADVTFEFPGLANGADIGSGNALTWNLIGDDALQVTGYAATSVIKALEVDGYTSGVLKSLSVEKDGIISGIFTNGQTSDLGQVVLANFPNVGALRKIGSYFAETNFSGAAIINSPGTGGLGEIMSNSLEQSNTDVSMEFVNMINAQRAYQASARIITTSDEMLTELMNIKR | not soluble
MTTRDLFADHAPADDRRIALGEAAVVLRGFALAEATALLAAIDDIARQAPFRHMVTPGGFEMSVALTNCGALGWTSDRRGYRYAARDPQTGQPWPPLPDCFLRLARDAAAAAGFPGFTPDACLINRYVPGARLSLHQDKDEQDYGAPIVSVSLGMPAMFLWGGHRRTDKTLRVPLFHGDVVVWGGPDRLRYHGVLPLKEAAHPLLGAQRINLTLRRAGLEHHHHHH | soluble
MPLTPADVHNVAFNKPPIGKRGYNEDEVDQFLDLVEDALVQFQEENEDLKQQVEELEAQVAGGTSSAASSSTAGAATAAASKSVDEAALRKEIEEKLRSEYASKLDDASKAAQKAQNDAKSAQDQLQRAQADAKAARDEAEKAKAEAKSAASSSTTKAAAVGAVGAGTGAAVATGAANVDTHMQAAKVLGLAQEMADRLTSEARSESKSMLDEAREAAEKQIEEANSTSNRTLEDARANAEKQIAEAQNRADTLVNEADAKAKNLVSEAEKKSAATLAASTSRAEAQIRQAEDKANALQADAERKHTETMAAVKEQQNALETRIAELQTFEREYRTRLKSLLEGQLEELNARGSSAPTNNKPSGE | not soluble
QDSTSDLIPAPPLSKVPLQQNFQDNQFHGKWYVVGLAGNRILRDDQHPMNMYATIYELKEDKSYNVTSVISSHKKCEYTIATFVPGSQPGEFTLGNIKSYGDKTSYLVRVVSTDYNQYAVVFFKLAEDNAEFFAITIYGRTKELASELKENFIRFSKSLGLPENHIVFPVPIDQCIDG | soluble
MQGDPDVLRLLNEQLTSELTAINQYFLHSKMQDNWGFTELAAHTRAESFDEMRHAEEITDRILLLDGLPNYQRIGSLRIGQTLREQFEADLAIEYDVLNRLKPGIVMCREKQDTTSAVLLEKIVADEEEHIDYLETQLELMDKLGEELYSAQCVSRPPT | not soluble
MAQRNLDYRLLKDRRNEYGVSQNKLAIACGLSRTYLNLIENGGVTASTKTMRKIFDQLESFNPDLPLTLLFDYVRIRFSTTDVRKIIQELLHLKFEYMLHEDYAFYSYQEQYVMGDIVVMLSHEEDKGVLLELKGRGCRQFETFLLAQKRSWYDFFEDCLKTGGVMKRLDLAINDRVGLLDISDLTKKCQKEECISLFRTFKSYRSGELLKADEKDGMGNTLYIGSLKSEVYFCLYEKDYEQYIKLGIPLDQTETKNRFEIRLKNDRAYHAIQDLLKGRSIESTTFSIINRYLRFADKVEGKRRTNWPLNEQWGRFIGRNRKEIQLTSEPKPYTIERTLNWLGRQVAPTWKMAKELDRLNQTTYIQDMVRNARLSDQHKKILEQQSMAIENLIV | not soluble
GSHSMRYFYTAMSRPGRGEPRFIAVGYVDDTQFVRFDSDAASPRTEPRPPWIEQEGPEYWDRNTQIFKTNTQTYRENLRIALRYYNQSEAGSHIIQRMYGCDLGPDGRLLRGHDQSAYDGKDYIALNEDLSSWTAADTAAQITQRKWEAARVAEQLRAYLEGLCVEWLRRYLENGKETLQRADPPKTHVTHHPVSDHEATLRCWALGFYPAEITLTWQRDGEDQTQDTELVETRPAGDRTFQKWAAVVVPSGEEQRYTCHVQHEGLPKPLTLRWEPHH | soluble
MSNTEERCDLSSSRDCPERHEHLLQRVTARAAEIGGGITVSRLMPSRQRRMIGAWCFLDHAGPAEFEPGGGLAVGPHPHIGLQTFTWMIQGEALHRDSLGNVQVIRPGQVNLMTAGHGIAHTEESLPDERHAHAAQLWIALPYEQRDIAPAFDHHPDLPRWQEQGVTFTLLAGALAGRQAPCRLYSPLLGADLACHDASTLQLTLDPHFEYGLLPLEGGLEVGGEHFAVNELAYLGDGRDGLQLQLDPGARVLLLGGAPFGAEIFMWWNFVGHSKGEIARAQKAWEEGDARFGRLDALEGPRLSAPPIPWKIDAE | not soluble
MSLSGKDLGRAIEQAINKKIASGSVKSKAEVARHFKVQPPSIYDWIKKGSISKDKLPELWRFFSDVVGPEHWGLNEYPIPTPTNSDTKSELLDINNLYQAASDEIRAIVAFLLSGNATEPDWVDHDVRAYIAAMEMKVGKYLKALESERKSQNITKTGTEGHHHHHH | soluble
GPGSMTTPNFELYGYFRSSCSGRLRIAFHLKSIPYTRHPVNLLKGEQHSDTYKSLNPTNTVPLLVVSNINNTVSPSSASFSIGQSLAALEYLEEALPTNARPLLPPISNPVARAHVRTICNIIACDVQPVTNLKIQKKVKALDGDPTVWSRDLATQGFGAVEKLLELSAGRFCVGDEITLADVCLVPAVWAAERVGMDLARFPITKRVFEEMLKEEAVQKAHWQKQEDTPEDLRA | soluble
MSLRYDRAGDQHYDVASALIKSMRGSDVDAALHYLARMVEAGEDPRFIARRIVIAAAEDVGMADPSALQTAVAAMHAVAQIGMPEARIVLAQAVVHNATAPKSNAAYAGINAAIADVRAGLGGSVPAHLRDAHYAGAGKLGHGKGYVYTHDVPAGVAEQQYAPDELVGKDYYVPTDRGFENQLRERLARLRRVLRGREGHHHHHH | soluble
MTKTAFLFAGQGAQYLGMGRDFYDQYPIVKETIDRASQVLGYDLRYLIDTEEDKLNQTRYTQPAILATSVAIYRLLQEKGYQPDMVAGLSLGEYSALVASGALDFEDAVALVAKRGAYMEEAAPADSGKMVAVLNTPVEVIEEACQKASELGVVTPANYNTPAQIVIAGEVVAVDRAVELLQEAGAKRLIPLKVSGPFHTSLLEPASQKLAETLAQVSFSDFTCPLVGNTEAAVMQKEDIAQLLTRQVKEPVRFYESIGVMQEAGISNFIEIGPGKVLSGFVKKIDQTAHLAHVEDQASLVALLEKL | soluble
MEKSLETVPGLDLSGEDIEMYYQYVRFVDRFLRFNRNYQIEYFKLSYPGDGSSEREVDLLKRWIDTVIQLKVKDLDFFDYSWEWGFDNFQLPSTIYICESLVSLKLSTVTLPSVKSVSLPFLRVLKLGAVKFADHLDLETLISGCTALETLAIRFFDRVQVLQVSSQSLLSFTHVAPKLVFTHAVRKPLAEKDLSIVIDAPRLEYLKLSDHQTSSFIIKNPGSLVAVDIDINLSSGFDSRNMIRDFLVGISSVKNMTISSIILKFYDYRFKMLPTFLEICPNLKSLILKSTEELGIKESSMFSGPQDFLPSLEYVEMKMPLKKGLLLEIRMLVGYFLEKATILKKLTLCLDDYRKRKESLIPRILAIPRISTSCEVVVL | soluble
AQGQRRAPLSVVFTEPQVASVGLSLRQIEDLYADQDAANYVVGQVSFEGQGRSRVMGKNKGLLNVYADRTSGEFLGAEMFGPAAEHIGHLLAWARQQQMTVQAMLTMPFYHPVIEEGLRTALRDAQQKLAIEKHDMNEFIMTHDNAMKLVI | not soluble
MEDVVLPLKKVLRVATEADYKCVAENGDSCQKAFLLCDEKIRERELDMSLVDVDYTFDRNKIIFYFTAEGRVDFRELVKDLASVFRTRIELRQIGVRDEAKLEHHHHHH | not soluble
MGSDKIHHHHHHMLKSLLLTPINLAVKPFPAAKARLDAAKIVLKRWVKLRHFISDLLHAKSFMFWSAQDTSYAKLSSELIFQYHKLEKGLCMAGPRRFFGRDPVIATCRLVKRWSGAGLPSNDPVFLGAIETLRAYRDRLAVTPPPPEHATQIWSLLNECLSLAPPTPSLTTPRPYQPSAGTAATFDLLCAQRRSVRAYTTDVVPISLIHEAIATAQLSPSACNRQPWRLHIYRDPQRTKHLLELQNGNAGFGHQLTTLLVVCADSRTFFDATERNEPYVDAGLFVMSLLLALQSRGLASCCLNWCVSPDTDQKGHDRGDIPSNEKIIMYLAVGYADAQAMVPRSPRRNLETVVTLHEQ | not soluble
MSMTVTTYLPIEAIKQQFCQSLDEQNTLILSAPPGAGKSTCLPLWLLTLPSLANKKIYLLQPRRLAVKNIATFLAAQLKEKVGETVGYRLRNDSKTSTSTRLEVITEGILTQIIQKDAELLGTALVVFDEFHERSLQGDLAFALTREVQTELRDDLKILLMSA | not soluble
MAHHHHHHMKIRTVLRKRIRLHGTNCPGFTCHHNRFSRLLKTWVVVLPPKQLAVYKNGVQLLLQLVTEHLTGDGDVLLQLRYQHMIAKEMLSGRHNTASFRVTYGFLTFDGVNPKVCAMNLLCGNPLIVKHSACLQCTHPSFVRVLNFCVTLKKRRTIVSKPQGRPTKKQLKVAPQHR | not soluble
VRWIVDGMNVIGSRPDGWWRDRHRAMVMLVERLEGWAITKARGDDVTVVFERPPSTAIPSSVVEVAHAPKAAANSADDEIVRLVRSGAQPQEIRVVTSDKALTDRVRDLGAAVYPAERFRDLIDPRGSNAARRTQ | soluble
